Experimental data as given in the supplement of paper PMC10567573.

B1: SLC35F2 (parent)
chain: FVAFALCMFCLYSFMPLVIKVTSA

Variants of: B1
Assay: protein stability index of a GFP-peptide fusion (GPS, HEK-293T) (PSI 1-6); higher = more stable
Conditions: c terminus: a fixed tail appended
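Also: lentivirally expressed fusions sorted by FACS into six bins by GFP to DsRed ratio, PSI derived from sequencing read proportions per bin multiplied by bin number.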

Variant	protein stability index
FVAFALFMFCLYSFMPLVIKVTSA [C7F]	2.43
FVAFALAMFCLYSFMPLVIKVTSA [C7A]	2.45
FVAFALEMFCLYSFMPLVIKVTSA [C7E]	2.19
FVAFALQMFCLYSFMPLVIKVTSA [C7Q]	3.11
FVAFALSMFCLYSFMPLVIKVTSA [C7S]	3.35
FVAFALRMFCLYSFMPLVIKVTSA [C7R]	3.23
FVAFALMMFCLYSFMPLVIKVTSA [C7M]	3.58
FVAFALIMFCLYSFMPLVIKVTSA [C7I]	2.35
FVAFALNMFCLYSFMPLVIKVTSA [C7N]	4.12
FVAFALPMFCLYSFMPLVIKVTSA [C7P]	1.95
FVAFALTMFCLYSFMPLVIKVTSA [C7T]	2.6
FVAFALKMFCLYSFMPLVIKVTSA [C7K]	2.46
FVAFALVMFCLYSFMPLVIKVTSA [C7V]	3.59
FVAFALYMFCLYSFMPLVIKVTSA [C7Y]	2.85
FVAFALWMFCLYSFMPLVIKVTSA [C7W]	2.19
FVAFALLMFCLYSFMPLVIKVTSA [C7L]	2.99
FVAFALHMFCLYSFMPLVIKVTSA [C7H]	3.27
FVAFALDMFCLYSFMPLVIKVTSA [C7D]	3.08
FVAFADCMFCLYSFMPLVIKVTSA [L6D]	3.24
FVAFAPCMFCLYSFMPLVIKVTSA [L6P]	2.79
FVAFAHCMFCLYSFMPLVIKVTSA [L6H]	3.22
FVAFAVCMFCLYSFMPLVIKVTSA [L6V]	2.13
FVAFAWCMFCLYSFMPLVIKVTSA [L6W]	3.52
FVAFAKCMFCLYSFMPLVIKVTSA [L6K]	2.38

Variant	protein stability index
FVAFAQCMFCLYSFMPLVIKVTSA [L6Q]	3.48
FVAFATCMFCLYSFMPLVIKVTSA [L6T]	2.16
FVAFAECMFCLYSFMPLVIKVTSA [L6E]	2.43
FVAFAYCMFCLYSFMPLVIKVTSA [L6Y]	3.21
FVAFANCMFCLYSFMPLVIKVTSA [L6N]	3.13
FVAFASCMFCLYSFMPLVIKVTSA [L6S]	3.91
FVAFACCMFCLYSFMPLVIKVTSA [L6C]	2.33
FVAFAFCMFCLYSFMPLVIKVTSA [L6F]	2.84
FVAFAGCMFCLYSFMPLVIKVTSA [L6G]	2.14
FVAFAICMFCLYSFMPLVIKVTSA [L6I]	2.5
FVAFAACMFCLYSFMPLVIKVTSA [L6A]	2.8
FVAFALCMACLYSFMPLVIKVTSA [F9A]	2.62
FVAFALCMPCLYSFMPLVIKVTSA [F9P]	2.44
FVAFALCMRCLYSFMPLVIKVTSA [F9R]	3.23
FVAFALCMGCLYSFMPLVIKVTSA [F9G]	1.76
FVAFALCMQCLYSFMPLVIKVTSA [F9Q]	2.59
FVAFALCMWCLYSFMPLVIKVTSA [F9W]	2.68
FVAFALCMNCLYSFMPLVIKVTSA [F9N]	2.31
FVAFALCMKCLYSFMPLVIKVTSA [F9K]	3.39
FVAFALCMVCLYSFMPLVIKVTSA [F9V]	2.56
FVAFALCMCCLYSFMPLVIKVTSA [F9C]	2.94
FVAFALCMECLYSFMPLVIKVTSA [F9E]	3.49
FVAFALCMYCLYSFMPLVIKVTSA [F9Y]	2.79
FVAFALCMMCLYSFMPLVIKVTSA [F9M]	3.23

Variant	protein stability index
FVAFALCMDCLYSFMPLVIKVTSA [F9D]	3.1
FVAFALCMSCLYSFMPLVIKVTSA [F9S]	2.61
FVAFALCMLCLYSFMPLVIKVTSA [F9L]	2.07
FVAFYLCMFCLYSFMPLVIKVTSA [A5Y]	2.58
FVAFPLCMFCLYSFMPLVIKVTSA [A5P]	2.62
FVAFSLCMFCLYSFMPLVIKVTSA [A5S]	3.44
FVAFRLCMFCLYSFMPLVIKVTSA [A5R]	2.84
FVAFNLCMFCLYSFMPLVIKVTSA [A5N]	1.4
FVAFVLCMFCLYSFMPLVIKVTSA [A5V]	2.75
FVAFWLCMFCLYSFMPLVIKVTSA [A5W]	3.11
FVAFALCHFCLYSFMPLVIKVTSA [M8H]	2.8
FVAFALCGFCLYSFMPLVIKVTSA [M8G]	1.97
FVAFALCFFCLYSFMPLVIKVTSA [M8F]	2.67
FVAFALCKFCLYSFMPLVIKVTSA [M8K]	2.51
FVAFALCCFCLYSFMPLVIKVTSA [M8C]	2.4
FVAFALCTFCLYSFMPLVIKVTSA [M8T]	2.72
FVAFALCEFCLYSFMPLVIKVTSA [M8E]	3.62
FVAFALCRFCLYSFMPLVIKVTSA [M8R]	3.49
FVAFALCVFCLYSFMPLVIKVTSA [M8V]	3.38
FVAFALCQFCLYSFMPLVIKVTSA [M8Q]	2.57
FVAFALCDFCLYSFMPLVIKVTSA [M8D]	2.12
FVAFALCSFCLYSFMPLVIKVTSA [M8S]	3.3
FVAFALCWFCLYSFMPLVIKVTSA [M8W]	3.65
FVAFALCAFCLYSFMPLVIKVTSA [M8A]	3.8

Variant	protein stability index
FVAFALCYFCLYSFMPLVIKVTSA [M8Y]	3.31
FVAFALCIFCLYSFMPLVIKVTSA [M8I]	2.88
FVAFALCNFCLYSFMPLVIKVTSA [M8N]	3.69
FVAFALCPFCLYSFMPLVIKVTSA [M8P]	2.4
FVAFALCLFCLYSFMPLVIKVTSA [M8L]	2.67
FVAFALCMFKLYSFMPLVIKVTSA [C10K]	2.52
FVAFALCMFQLYSFMPLVIKVTSA [C10Q]	3.47
FVAFALCMFDLYSFMPLVIKVTSA [C10D]	3.05
FVAFALCMFLLYSFMPLVIKVTSA [C10L]	2.43
FVAFALCMFFLYSFMPLVIKVTSA [C10F]	3.07
FVAFALCMFVLYSFMPLVIKVTSA [C10V]	3.48
FVAFALCMFGLYSFMPLVIKVTSA [C10G]	2.58
FVAFALCMFSLYSFMPLVIKVTSA [C10S]	3.53
FVAFALCMFMLYSFMPLVIKVTSA [C10M]	2.88
FVAFALCMFHLYSFMPLVIKVTSA [C10H]	2.75
FVAFALCMFTLYSFMPLVIKVTSA [C10T]	2.52
FVAFALCMFNLYSFMPLVIKVTSA [C10N]	2.8
FVAFALCMFELYSFMPLVIKVTSA [C10E]	3.49
FVAFALCMFILYSFMPLVIKVTSA [C10I]	2.27
FVAFALCMFALYSFMPLVIKVTSA [C10A]	2.18
FVAFALCMFRLYSFMPLVIKVTSA [C10R]	3.21
FVAFALCMFPLYSFMPLVIKVTSA [C10P]	2.35
